Measured values published in paper PMC6555819, “Comprehensive study of nuclear receptor DNA binding provides a revised framework for understanding receptor specificity”.

What was measured:
[1] = molecular target: LXRa:RXRa (Homo sapiens, UniProt Q13133;P19793 full;full); assay: no ligand; PBM; 270 nM : 90 nM RXRa; PBS pH 7.4, 2% milk, 0.02% Triton X-100, 1 mM DTT, BSA, 0.4 mg/ml salmon testes DNA; conditions: tags: His kept;His cleaved; copies: 1;1; label: surface-attached array probe
Method in brief: (§1)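 Scanned fluorescence from custom Agilent 4×180K protein-binding microarrays was regression-normalized. Binding z-scores use random background probes as reference. Ligand-free nuclear receptor dimers were incubated on the arrays for 1 h and detected with antibodies against each partner (one per run).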

[2] = molecular target: LXRb:RXRa (Homo sapiens, UniProt P55055;P19793 full;full); assay: as above; conditions: tags: His kept;His cleaved; copies: 1;1; label: surface-attached array probe
Sequence of LXRb:RXRa (P55055 whole entry, chain 1 of 2): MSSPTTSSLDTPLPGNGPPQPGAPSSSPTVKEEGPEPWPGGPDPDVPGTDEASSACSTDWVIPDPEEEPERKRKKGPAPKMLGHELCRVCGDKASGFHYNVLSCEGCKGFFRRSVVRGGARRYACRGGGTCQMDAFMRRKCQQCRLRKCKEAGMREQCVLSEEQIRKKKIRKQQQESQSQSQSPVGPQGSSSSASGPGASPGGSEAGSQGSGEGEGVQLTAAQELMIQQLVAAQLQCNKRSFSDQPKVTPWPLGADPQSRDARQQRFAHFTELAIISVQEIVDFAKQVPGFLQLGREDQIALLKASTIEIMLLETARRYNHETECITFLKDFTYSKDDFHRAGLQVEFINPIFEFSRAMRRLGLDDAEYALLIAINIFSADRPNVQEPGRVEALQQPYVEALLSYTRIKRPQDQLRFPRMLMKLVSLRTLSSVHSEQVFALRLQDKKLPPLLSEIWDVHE
Sequence of LXRb:RXRa (P19793 whole entry, chain 2 of 2): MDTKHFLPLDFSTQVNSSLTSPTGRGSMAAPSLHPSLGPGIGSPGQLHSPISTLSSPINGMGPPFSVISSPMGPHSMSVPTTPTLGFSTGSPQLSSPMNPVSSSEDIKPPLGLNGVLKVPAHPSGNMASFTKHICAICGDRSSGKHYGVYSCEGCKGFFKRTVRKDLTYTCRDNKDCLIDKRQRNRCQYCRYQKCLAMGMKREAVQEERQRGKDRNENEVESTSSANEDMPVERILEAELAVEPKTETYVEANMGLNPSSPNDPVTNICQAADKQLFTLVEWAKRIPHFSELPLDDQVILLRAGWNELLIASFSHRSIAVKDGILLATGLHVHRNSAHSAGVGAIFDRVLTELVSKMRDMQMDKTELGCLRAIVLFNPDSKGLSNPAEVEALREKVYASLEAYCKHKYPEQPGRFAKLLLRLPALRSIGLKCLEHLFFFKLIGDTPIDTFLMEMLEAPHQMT
Method in brief: as §1

[3] = molecular target: PPARg:RXRa (Homo sapiens, UniProt P37231;P19793 full;full); assay: no ligand; PBM; 180 nM : 90 nM RXRa; PBS pH 7.4, 2% milk, 0.02% Triton X-100, 1 mM DTT, BSA, 0.4 mg/ml salmon testes DNA; conditions: tags: His kept;His cleaved; copies: 1;1; label: surface-attached array probe
Sequence of PPARg:RXRa (P37231 29-505, chain 1 of 2): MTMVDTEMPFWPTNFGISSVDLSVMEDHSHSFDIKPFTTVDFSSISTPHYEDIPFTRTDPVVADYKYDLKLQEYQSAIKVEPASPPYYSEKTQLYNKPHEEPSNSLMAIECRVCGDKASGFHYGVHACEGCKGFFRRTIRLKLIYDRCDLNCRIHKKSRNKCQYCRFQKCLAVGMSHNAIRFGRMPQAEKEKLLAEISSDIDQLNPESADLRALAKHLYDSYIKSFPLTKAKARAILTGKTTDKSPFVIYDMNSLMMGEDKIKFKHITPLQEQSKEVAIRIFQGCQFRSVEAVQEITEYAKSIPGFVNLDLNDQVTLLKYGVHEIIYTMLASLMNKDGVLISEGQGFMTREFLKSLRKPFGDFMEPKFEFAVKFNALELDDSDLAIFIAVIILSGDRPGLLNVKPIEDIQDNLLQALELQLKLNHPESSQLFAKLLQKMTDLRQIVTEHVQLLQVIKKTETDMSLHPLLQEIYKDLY
Sequence of PPARg:RXRa (P19793 whole entry, chain 2 of 2): as the sequence (P19793 whole entry, chain 2 of 2) above

[4] = molecular target: RARa:RXRa (Homo sapiens, UniProt P10276;P19793 full;full); assay: no ligand; PBM; 270 nM : 90 nM RXRa; PBS pH 7.4, 2% milk, 0.02% Triton X-100, 1 mM DTT, BSA, 0.4 mg/ml salmon testes DNA; conditions: tags: His kept;His cleaved; copies: 1;1; label: surface-attached array probe
Method in brief: as §1

[5] = molecular target: FXR:RXRa (Homo sapiens, UniProt Q96RI1;P19793 full;full); assay: as above; conditions: tags: His kept;His cleaved; copies: 1;1; label: surface-attached array probe
Sequence of FXR:RXRa (Q96RI1 whole entry, chain 1 of 2): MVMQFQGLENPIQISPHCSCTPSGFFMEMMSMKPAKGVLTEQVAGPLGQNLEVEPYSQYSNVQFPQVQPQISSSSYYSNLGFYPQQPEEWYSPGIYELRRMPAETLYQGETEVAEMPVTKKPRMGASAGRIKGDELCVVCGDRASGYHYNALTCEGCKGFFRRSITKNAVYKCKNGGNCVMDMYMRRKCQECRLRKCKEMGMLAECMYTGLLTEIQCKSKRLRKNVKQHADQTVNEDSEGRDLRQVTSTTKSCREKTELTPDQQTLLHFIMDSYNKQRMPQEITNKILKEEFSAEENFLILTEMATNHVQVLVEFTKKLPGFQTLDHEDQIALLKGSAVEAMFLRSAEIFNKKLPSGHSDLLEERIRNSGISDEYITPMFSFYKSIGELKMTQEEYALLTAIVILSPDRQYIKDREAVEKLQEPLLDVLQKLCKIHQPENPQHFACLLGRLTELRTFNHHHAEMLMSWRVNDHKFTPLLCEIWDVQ
Sequence of FXR:RXRa (P19793 whole entry, chain 2 of 2): as the sequence (P19793 whole entry, chain 2 of 2) above
Method in brief: as §1

[6] = molecular target: RARb:RXRa (Homo sapiens, UniProt P10826;P19793 full;full); assay: as above; conditions: tags: His kept;His cleaved; copies: 1;1; label: surface-attached array probe
Sequence of RARb:RXRa (P10826 whole entry, chain 1 of 2): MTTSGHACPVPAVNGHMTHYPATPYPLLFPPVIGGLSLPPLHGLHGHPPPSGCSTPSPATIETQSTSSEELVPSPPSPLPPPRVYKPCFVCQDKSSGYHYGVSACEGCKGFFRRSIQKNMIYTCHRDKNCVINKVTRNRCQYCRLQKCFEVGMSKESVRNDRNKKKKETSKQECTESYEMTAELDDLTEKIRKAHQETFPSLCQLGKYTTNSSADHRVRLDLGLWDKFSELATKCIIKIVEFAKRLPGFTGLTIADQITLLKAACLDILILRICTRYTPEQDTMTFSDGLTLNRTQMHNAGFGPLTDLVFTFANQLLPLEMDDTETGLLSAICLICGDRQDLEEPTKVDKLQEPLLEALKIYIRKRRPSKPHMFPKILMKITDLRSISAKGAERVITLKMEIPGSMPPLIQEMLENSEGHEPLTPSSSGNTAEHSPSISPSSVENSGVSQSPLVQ
Sequence of RARb:RXRa (P19793 whole entry, chain 2 of 2): as the sequence (P19793 whole entry, chain 2 of 2) above
Method in brief: as §1

[7] = molecular target: VDR:RXRa (Homo sapiens, UniProt P11473;P19793 full;full); assay: as above; conditions: tags: His kept;His cleaved; copies: 1;1; label: surface-attached array probe
Method in brief: as §1

[8] = molecular target: PXR:RXRa (Homo sapiens, UniProt O75469;P19793 full;full); assay: as above; conditions: tags: His kept;His cleaved; copies: 1;1; label: surface-attached array probe
Method in brief: as §1

[9] = molecular target: RARg:RXRa (Homo sapiens, UniProt P13631;P19793 full;full); assay: as above; conditions: tags: His kept;His cleaved; copies: 1;1; label: surface-attached array probe
Sequence of RARg:RXRa (P13631 whole entry, chain 1 of 2): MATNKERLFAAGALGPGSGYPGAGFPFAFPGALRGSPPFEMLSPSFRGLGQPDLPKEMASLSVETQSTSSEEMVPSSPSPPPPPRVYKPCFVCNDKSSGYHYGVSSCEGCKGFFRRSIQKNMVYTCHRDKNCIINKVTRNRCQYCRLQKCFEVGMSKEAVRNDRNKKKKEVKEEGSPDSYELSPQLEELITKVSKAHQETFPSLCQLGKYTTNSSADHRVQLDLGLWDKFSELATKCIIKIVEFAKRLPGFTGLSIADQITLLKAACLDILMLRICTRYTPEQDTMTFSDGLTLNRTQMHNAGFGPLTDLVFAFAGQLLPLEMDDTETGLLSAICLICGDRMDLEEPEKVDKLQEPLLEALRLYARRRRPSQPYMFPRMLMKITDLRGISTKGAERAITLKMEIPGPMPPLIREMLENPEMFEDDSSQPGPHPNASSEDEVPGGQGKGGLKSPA
Sequence of RARg:RXRa (P19793 whole entry, chain 2 of 2): as the sequence (P19793 whole entry, chain 2 of 2) above
Method in brief: as §1

[10] = molecular target: PPARa:RXRa (Homo sapiens, UniProt Q07869;P19793 full;full); assay: as above; conditions: tags: GST kept;His cleaved; copies: 1;1; label: surface-attached array probe
Method in brief: as §1

[11] = molecular target: RXRa (Homo sapiens, UniProt P19793); assay: no ligand; PBM; 180 nM; PBS pH 7.4, 2% milk, 0.02% Triton X-100, 1 mM DTT, BSA, 0.4 mg/ml salmon testes DNA; conditions: tags: His cleaved; chain copies: 2; label: surface-attached array probe

Binder	binding signal [1]	binding signal [3]	binding signal [8]	also measured
NRC3_random_hg19_499_o1 (dsDNA) DNA 1: GCCATGTGGACTTCATTCGACCCAGCTGAGAAGACTGCGATTGACAGCGTAGAATGAAGG DNA 2: CCTTCATTCTACGCTGTCAATCGCAGTCTTCTCAGCTGGGTCGAATGAAGTCCACATGGC	0.09 PBM z-score against 500 random probes	0.35 PBM z-score against 500 random probes	–	binding signal [2]: 0.14 PBM z-score against 500 random probes
NRC3_wobSeed25_DR1_C26T_o1 (dsDNA) DNA 1: GCCAAACTAGGTCAAAGGTCAAAGTTGAGCCAACCAGCGATTGACAGCGTAGAATGAAGG DNA 2: CCTTCATTCTACGCTGTCAATCGCTGGTTGGCTCAACTTTGACCTTTGACCTAGTTTGGC	–	–	–	binding signal [4]: 9.38 PBM z-score against 500 random probes
NRC3_random_hg19_250_o1 (dsDNA) DNA 1: GCCAAGACCATCCTGGCTAACACAGTGAAACCCTGTGCGATTGACAGCGTAGAATGAAGG DNA 2: CCTTCATTCTACGCTGTCAATCGCACAGGGTTTCACTGTGTTAGCCAGGATGGTCTTGGC	-0.15 PBM z-score against 500 random probes	0.19 PBM z-score against 500 random probes	–	binding signal [5]: 0 PBM z-score against 500 random probes; binding signal [6]: -0.3 PBM z-score against 500 random probes; binding signal [7]: -0.26 PBM z-score against 500 random probes; binding signal [2]: -0.42 PBM z-score against 500 random probes
NRC3_random_hg19_195_o1 (dsDNA) DNA 1: GCGGACTGTCTGCAAAGAGTCCTGTGATATGATCTGGCGATTGACAGCGTAGAATGAAGG DNA 2: CCTTCATTCTACGCTGTCAATCGCCAGATCATATCACAGGACTCTTTGCAGACAGTCCGC	-1.32 PBM z-score against 500 random probes	0.1 PBM z-score against 500 random probes	-0.96 PBM z-score against 500 random probes	–
NRC3_wobSeed93_DR3_T11G_o1 (dsDNA) DNA 1: GCAGTCAAAGGTCATCTAGGTAACGTAAGATATGCTGCGATTGACAGCGTAGAATGAAGG DNA 2: CCTTCATTCTACGCTGTCAATCGCAGCATATCTTACGTTACCTAGATGACCTTTGACTGC	7.01 PBM z-score against 500 random probes	10.1 PBM z-score against 500 random probes	–	binding signal [5]: 8.84 PBM z-score against 500 random probes; binding signal [9]: 7.62 PBM z-score against 500 random probes; binding signal [6]: 6.16 PBM z-score against 500 random probes; binding signal [2]: 6.47 PBM z-score against 500 random probes; binding signal [10]: 7.57 PBM z-score against 500 random probes; binding signal [11]: 8.08 PBM z-score against 500 random probes
NRC3_random_hg19_455_o1 (dsDNA) DNA 1: GCCTGCAGTTTCTGTTTCCGTGGTCCAGGTTGAGCCGCGATTGACAGCGTAGAATGAAGG DNA 2: CCTTCATTCTACGCTGTCAATCGCGGCTCAACCTGGACCACGGAAACAGAAACTGCAGGC	–	-2.08 PBM z-score against 500 random probes	-0.33 PBM z-score against 500 random probes	–
NRC3_random_hg19_385_o1 (dsDNA) DNA 1: GCTCTATGGTCACTAGACCTTGGGATGCACCAAGGCGCGATTGACAGCGTAGAATGAAGG DNA 2: CCTTCATTCTACGCTGTCAATCGCGCCTTGGTGCATCCCAAGGTCTAGTGACCATAGAGC	0.2 PBM z-score against 500 random probes	0.45 PBM z-score against 500 random probes	0.11 PBM z-score against 500 random probes	–
NRC3_wobSeed73_DR3_A6T_o1 (dsDNA) DNA 1: GCCAATCTAGGTCACAGAGGTCAAAGTCCGTGCGTAGCGATTGACAGCGTAGAATGAAGG DNA 2: CCTTCATTCTACGCTGTCAATCGCTACGCACGGACTTTGACCTCTGTGACCTAGATTGGC	–	10.7 PBM z-score against 500 random probes	7.27 PBM z-score against 500 random probes	–
NRC3_random_hg19_290_o1 (dsDNA) DNA 1: GCGCCTCCATCTCAGGACTTGATTCTATTGAGTTAAGCGATTGACAGCGTAGAATGAAGG DNA 2: CCTTCATTCTACGCTGTCAATCGCTTAACTCAATAGAATCAAGTCCTGAGATGGAGGCGC	–	-0.43 PBM z-score against 500 random probes	-0.26 PBM z-score against 500 random probes	binding signal [9]: -0.59 PBM z-score against 500 random probes; binding signal [10]: -0.45 PBM z-score against 500 random probes
NRC3_wobSeed13_DR0_C7A_o1 (dsDNA) DNA 1: GCCGTCAAAGGTCAAGGTCAGTGAAAGAGACTCGAAGCGATTGACAGCGTAGAATGAAGG DNA 2: CCTTCATTCTACGCTGTCAATCGCTTCGAGTCTCTTTCACTGACCTTGACCTTTGACGGC	7.37 PBM z-score against 500 random probes	9.87 PBM z-score against 500 random probes	–	binding signal [5]: 9.06 PBM z-score against 500 random probes; binding signal [9]: 8.25 PBM z-score against 500 random probes; binding signal [6]: 6.38 PBM z-score against 500 random probes; binding signal [2]: 6.31 PBM z-score against 500 random probes; binding signal [10]: 6.81 PBM z-score against 500 random probes; binding signal [11]: 8.68 PBM z-score against 500 random probes
NRC3_random_hg19_319_o1 (dsDNA) DNA 1: GCTCCCTGCCAGCCCTGGTCTGAAGCAAGCCTAGAGGCGATTGACAGCGTAGAATGAAGG DNA 2: CCTTCATTCTACGCTGTCAATCGCCTCTAGGCTTGCTTCAGACCAGGGCTGGCAGGGAGC	–	-1.25 PBM z-score against 500 random probes	-0.63 PBM z-score against 500 random probes	–
NRC3_wobSeed33_DR1_A13T_o1 (dsDNA) DNA 1: GCATCTCTAGGTTAAAGTTCAGTGAATCCCGAGGATGCGATTGACAGCGTAGAATGAAGG DNA 2: CCTTCATTCTACGCTGTCAATCGCATCCTCGGGATTCACTGAACTTTAACCTAGAGATGC	–	10 PBM z-score against 500 random probes	3.64 PBM z-score against 500 random probes	–
NRC3_wobSeed37_DR1_G22C_o1 (dsDNA) DNA 1: GCCGTCCAAGGTCAAAGGTCACTGAAGAGATGACGGGCGATTGACAGCGTAGAATGAAGG DNA 2: CCTTCATTCTACGCTGTCAATCGCCCGTCATCTCTTCAGTGACCTTTGACCTTGGACGGC	–	11.9 PBM z-score against 500 random probes	7.38 PBM z-score against 500 random probes	binding signal [9]: 9.31 PBM z-score against 500 random probes; binding signal [7]: 7.17 PBM z-score against 500 random probes
NRC3_wobSeed37_DR1_C6A_o1 (dsDNA) DNA 1: GCCGTACAAGGTCAAAGGTCAGTGAAGAGATGACGGGCGATTGACAGCGTAGAATGAAGG DNA 2: CCTTCATTCTACGCTGTCAATCGCCCGTCATCTCTTCACTGACCTTTGACCTTGTACGGC	7.38 PBM z-score against 500 random probes	12.3 PBM z-score against 500 random probes	–	binding signal [5]: 8.85 PBM z-score against 500 random probes
NRC3_wobSeed37_DR1_C6T_o1 (dsDNA) DNA 1: GCCGTTCAAGGTCAAAGGTCAGTGAAGAGATGACGGGCGATTGACAGCGTAGAATGAAGG DNA 2: CCTTCATTCTACGCTGTCAATCGCCCGTCATCTCTTCACTGACCTTTGACCTTGAACGGC	7.33 PBM z-score against 500 random probes	11.8 PBM z-score against 500 random probes	–	binding signal [5]: 8.83 PBM z-score against 500 random probes
NRC3_wobSeed29_DR1_A7C_o1 (dsDNA) DNA 1: GCGCTTCCGGGTCAAAGGTTATAGCATGAATAGAATGCGATTGACAGCGTAGAATGAAGG DNA 2: CCTTCATTCTACGCTGTCAATCGCATTCTATTCATGCTATAACCTTTGACCCGGAAGCGC	–	12.4 PBM z-score against 500 random probes	6.49 PBM z-score against 500 random probes	–
NRC3_wobSeed76_DR3_T21C_o1 (dsDNA) DNA 1: GCCCTACTGGGCCAAAAAGGCCATTGATGCCGATAAGCGATTGACAGCGTAGAATGAAGG DNA 2: CCTTCATTCTACGCTGTCAATCGCTTATCGGCATCAATGGCCTTTTTGGCCCAGTAGGGC	–	0.38 PBM z-score against 500 random probes	-0.08 PBM z-score against 500 random probes	–
NRC3_random_hg19_169_o1 (dsDNA) DNA 1: GCCTTCCCTGCTGCTTTGTTTACCTAAGCAAGCCTGGCGATTGACAGCGTAGAATGAAGG DNA 2: CCTTCATTCTACGCTGTCAATCGCCAGGCTTGCTTAGGTAAACAAAGCAGCAGGGAAGGC	-0.21 PBM z-score against 500 random probes	-1.09 PBM z-score against 500 random probes	–	binding signal [6]: -0.32 PBM z-score against 500 random probes
